# Laboratory results published in patent US20110178020A1 (UNIVERSITY OF LOUISVILLE RESEARCH FOUNDATION, published 2011).
# B1: TAT-HA-SNAP-23 fusion polypeptide (TAT cell-penetrating polypeptide, hemagglutinin affinity tag, and 78 amino acids from the amino-terminus of human SNAP-23) (other)
# chain: MRGSHHHHHHGMASMTGGQQMGRDLYDDDDKDRWGSKLGYGRKKRRQRRRGGSTMSGYPYDVPDYAGSMDNLSSEEIQQRAHQITDESLESTRRILGLAIESQDAGIKTITMLDEQKEQLNRIEEGLDQINKDMRETEKTLTELNK
# notes: also called TAT-SNAP-23
# Target: T1, GST-VAMP-2 (VAMP-2 generated as a GST fusion protein, bound to glutathione beads) (UniProt P63027 1-94)
# T1 construct: not shown: glutathione S-transferase (GST) tag
# T1 sequence (P63027 1-94): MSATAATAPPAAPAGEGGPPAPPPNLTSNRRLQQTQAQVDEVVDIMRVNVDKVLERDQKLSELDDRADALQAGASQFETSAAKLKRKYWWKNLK
# Assay: GST pull down, immunoblot for the HA tag
binder,measurement,value
B1,binding result,no binding
